The results in this text go back to publication PMC3524375.

For the experiment, the target named is NADPH-cytochrome P450 reductase (UniProt P00388).
Chain of UniProt P00388 (P00388 whole entry): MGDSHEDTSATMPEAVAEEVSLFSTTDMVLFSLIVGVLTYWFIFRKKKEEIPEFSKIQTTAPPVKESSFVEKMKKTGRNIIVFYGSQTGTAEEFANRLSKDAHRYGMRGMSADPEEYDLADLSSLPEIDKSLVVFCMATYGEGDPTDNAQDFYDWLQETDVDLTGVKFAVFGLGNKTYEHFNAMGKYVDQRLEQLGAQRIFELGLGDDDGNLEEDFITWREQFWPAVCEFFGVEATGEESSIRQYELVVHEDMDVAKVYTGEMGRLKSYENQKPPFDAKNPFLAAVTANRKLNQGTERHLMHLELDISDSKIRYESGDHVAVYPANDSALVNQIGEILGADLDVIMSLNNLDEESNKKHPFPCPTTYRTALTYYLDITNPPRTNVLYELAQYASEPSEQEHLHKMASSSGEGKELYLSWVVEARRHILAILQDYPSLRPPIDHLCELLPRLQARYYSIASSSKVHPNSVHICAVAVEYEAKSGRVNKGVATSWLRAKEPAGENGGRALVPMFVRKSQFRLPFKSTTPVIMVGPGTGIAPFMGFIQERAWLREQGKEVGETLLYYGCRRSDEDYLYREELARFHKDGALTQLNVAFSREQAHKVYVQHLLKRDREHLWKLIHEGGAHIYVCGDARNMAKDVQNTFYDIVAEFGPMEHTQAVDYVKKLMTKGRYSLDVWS
For the substance “CYP3A4 Y430F mutant (from UniProt P08684 1-503) (enzyme)”, the % of CPR-dependent versus dithionite-dependent reduced P450-CO spectrum turned out to be 41%.

In the case of “CYP3A4 Y430V mutant (from UniProt P08684 1-503) (enzyme)”, the % of CPR-dependent versus dithionite-dependent reduced P450-CO spectrum worked out at 22%.

Regarding “human cytochrome P450 3A4, wild type, untreated (from UniProt P08684 1-503) (enzyme)”, the % of CPR-dependent versus dithionite-dependent reduced P450-CO spectrum is 88%.
